The data set has as its target CD123 peptide epitope (24 aa, extracellular domain, disulfide between the two Cys) (UniProt P26951). Description: flow cytometry, peptide-coated magnetic beads. To be noted: PBS (binding buffer), 37 °C, 30 min; BSA-bead signal subtracted for Kd; pH and salt not given.
UniProt P26951, sequence (P26951 whole entry, the tested form may be a part): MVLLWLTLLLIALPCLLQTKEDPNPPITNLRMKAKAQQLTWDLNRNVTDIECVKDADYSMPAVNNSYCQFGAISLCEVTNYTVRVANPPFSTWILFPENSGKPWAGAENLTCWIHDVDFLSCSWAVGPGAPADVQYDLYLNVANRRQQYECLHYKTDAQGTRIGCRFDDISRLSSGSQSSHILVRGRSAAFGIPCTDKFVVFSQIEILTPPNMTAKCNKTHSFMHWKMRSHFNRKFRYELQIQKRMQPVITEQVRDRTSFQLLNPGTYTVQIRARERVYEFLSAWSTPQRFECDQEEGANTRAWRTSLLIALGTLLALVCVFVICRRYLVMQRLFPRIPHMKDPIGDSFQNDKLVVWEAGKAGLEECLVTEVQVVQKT

What is called Kd is a measure of binding affinity in units of concentration. For the sequence “TGCGTGTGTAGTGTGTCTGGGCTACATCGATGAGCTGCCTAGGGTCCCTCTTAGGGATTTGGGCGG [ZW25]”, the Kd was determined as 29.4 nM.

For “TGCGTGTGTACTGTGTCTGGTCCCGTAGCTACTAGCGAACTCCCTGCCTCTTAGGGATTTGGGCGG [CY30]”, the Kd was 15.4 nM.

The values above are taken from PMC8241133.
